The record followed here is patent publication US20210071139A1.

Emg1, sequence (O35130 whole entry): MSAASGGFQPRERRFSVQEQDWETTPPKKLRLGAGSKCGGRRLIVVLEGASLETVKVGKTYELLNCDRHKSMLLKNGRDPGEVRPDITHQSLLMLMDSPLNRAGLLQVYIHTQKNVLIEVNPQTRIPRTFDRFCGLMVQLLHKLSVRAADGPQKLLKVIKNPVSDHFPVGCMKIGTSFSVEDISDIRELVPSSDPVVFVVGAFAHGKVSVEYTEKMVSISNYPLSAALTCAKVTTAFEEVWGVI

The first assay deals with TOX (UniProt Q66JW3). Description: anti-TOX IP from EL4 nuclear extract, LC-MS/MS, MiST analysis.
TOX, sequence (Q66JW3 whole entry): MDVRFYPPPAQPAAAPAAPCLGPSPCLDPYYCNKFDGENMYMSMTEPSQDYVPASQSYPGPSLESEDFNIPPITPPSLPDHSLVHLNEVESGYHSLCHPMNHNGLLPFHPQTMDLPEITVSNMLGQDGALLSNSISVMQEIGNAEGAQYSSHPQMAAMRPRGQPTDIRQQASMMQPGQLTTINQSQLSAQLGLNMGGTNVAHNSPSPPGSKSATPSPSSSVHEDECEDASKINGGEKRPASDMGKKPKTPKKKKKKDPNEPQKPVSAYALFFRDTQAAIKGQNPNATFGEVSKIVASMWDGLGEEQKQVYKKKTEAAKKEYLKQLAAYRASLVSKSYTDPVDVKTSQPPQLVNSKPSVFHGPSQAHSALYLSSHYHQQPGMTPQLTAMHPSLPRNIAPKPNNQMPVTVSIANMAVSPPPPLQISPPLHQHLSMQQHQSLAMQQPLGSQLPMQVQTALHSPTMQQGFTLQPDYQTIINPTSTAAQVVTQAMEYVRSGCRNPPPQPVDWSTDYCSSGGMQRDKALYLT
On to Xrcc5 (from UniProt P27641 1-732), for which the Abundance came out at 2.92e-05, the MiST Score stood at 0.775, the Reproducibility amounted to 0.737 and the Specificity is 0.799.
The matching figures for Lztfl1 (from UniProt Q9JHQ5 1-299): 6.33e-05, 0.776, 0.894 and 0.73.
The corresponding values for Acin1 (from UniProt Q9JIX8 1-1338) are 2.27e-05, 0.77, 0.612 and 0.848.
The substance “Xrn2 (from UniProt Q9DBR1 1-951) (enzyme)” showed an Abundance of 8.55e-06, a MiST Score of 0.787, a Reproducibility of 0.804 and a Specificity of 0.787.
The substance Brd1 showed an Abundance of 3.1e-06, a MiST Score of 0.785, a Reproducibility of 0.321 and a Specificity of 1.
Substance Terf2 (from UniProt O35144 1-541) gave an Abundance of 6.86e-06, a MiST Score of 0.79, a Reproducibility of 0.994 and a Specificity of 0.705.
The matching figures for Ywhah (from UniProt P68510 2-246): 6.28e-05, 0.774, 0.819 and 0.761.
The corresponding values for Racgap1 (from UniProt Q9WVM1 1-628) are 8.29e-06, 0.793, 0.868 and 0.765.
The matching figures for Ap3b1 (from UniProt Q9Z1T1 1-1105): 4.13e-06, 0.778, 0.696 and 0.821.
Rbm15 (from UniProt Q0VBL3 1-962) displayed an Abundance of 8.04e-06, a MiST Score of 0.776, a Reproducibility of 0.987 and a Specificity of 0.687.
In turn, Eif2a (from UniProt Q8BJW6 1-581) gave an Abundance of 8.58e-05, a MiST Score of 0.794, a Reproducibility of 0.992 and a Specificity of 0.712.
As to Rcc1 (from UniProt Q8VE37 2-421), the Abundance stood at 2.79e-05, the MiST Score was 0.796, the Reproducibility turned out to be 0.986 and the Specificity amounted to 0.717.
For Ppan (from UniProt Q91YU8 1-470), the Abundance is 4.7e-05, the MiST Score is 0.792, the Reproducibility is 0.959 and the Specificity came out at 0.723.
The matching figures for Slc25a4 (from UniProt P48962 2-298): 0.000186, 0.765, 0.959 and 0.684.
Take Wdr36: the Abundance stood at 3.46e-06, the MiST Score came to 0.785, the Reproducibility amounted to 0.886 and the Specificity came to 0.747.
Turning to Cycs (from UniProt P62897 2-105), the Abundance was determined as 8.14e-05, the MiST Score stood at 0.793, the Reproducibility is 0.957 and the Specificity was found to be 0.726.
The matching figures for “Smarca4 (from UniProt Q3TKT4 1-1613) (enzyme)”: 6.52e-07, 0.786, 0.594 and 0.879.
In turn, Slc25a11 (from UniProt Q9CR62 2-314) registered an Abundance of 2.29e-05, a MiST Score of 0.788, a Reproducibility of 0.956 and a Specificity of 0.72.
Regarding Thoc1 (from UniProt Q8R3N6 1-657), the Abundance is 9.29e-06, the MiST Score came out at 0.775, the Reproducibility was 0.999 and the Specificity worked out at 0.681.
For the substance Srrm2 (from UniProt Q8BTI8 1-2703), the Abundance came out at 1.1e-06, the MiST Score was found to be 0.769, the Reproducibility is 0.861 and the Specificity turned out to be 0.734.
Consider “Luzp1; mFLJ00226 (from UniProt Q8R4U7 2-1068)”, for which the Abundance worked out at 7.26e-06, the MiST Score was 0.792, the Reproducibility is 0.856 and the Specificity is 0.77.
Take Srp72: the Abundance was found to be 3.55e-05, the MiST Score stood at 0.765, the Reproducibility worked out at 0.872 and the Specificity came to 0.723.
The matching figures for Bag6 (from UniProt Q9Z1R2 1-1154): 1.4e-06, 0.782, 0.765 and 0.797.
The corresponding values for “Umps (from UniProt P13439 1-481) (enzyme)” are 2.41e-06, 0.766, 0.792 and 0.761.
Take BC005685: the Abundance amounted to 0.000234, the MiST Score came out at 0.779, the Reproducibility turned out to be 0.959 and the Specificity worked out at 0.705.
In turn, Sin3a (from UniProt Q60520 1-1274) gave an Abundance of 5.49e-06, a MiST Score of 0.773, a Reproducibility of 0.284 and a Specificity of 1.
The matching figures for Numa1 (from UniProt E9Q7G0 1-2094): 1.43e-06, 0.787, 0.775 and 0.799.
The matching figures for “Pfkl (from UniProt P12382 2-780) (enzyme)”: 3.37e-06, 0.768, 0.501 and 0.894.
The corresponding values for “Gm20425; Srprb (from UniProt P47758 1-269)” are 5.88e-06, 0.766, 0.92 and 0.703.
In turn, Rcc2 (from UniProt Q8BK67 1-520) registered an Abundance of 3.74e-05, a MiST Score of 0.79, a Reproducibility of 0.958 and a Specificity of 0.722.
The corresponding values for Cd3eap (from UniProt Q76KJ5 1-399) are 0.000224, 0.773, 0.993 and 0.68.
Substance Elmo1 (from UniProt Q8BPU7 1-727) yielded an Abundance of 5.93e-06, a MiST Score of 0.769, a Reproducibility of 0.595 and a Specificity of 0.854.
The corresponding values for Eif3h (from UniProt Q91WK2 1-352) are 0.000105, 0.784, 0.956 and 0.714.
Regarding “Usp10 (from UniProt P52479 2-792) (enzyme)”, the Abundance is 3.26e-06, the MiST Score was 0.793, the Reproducibility came out at 0.613 and the Specificity turned out to be 0.881.
The substance Tcof1 (from UniProt O08784 1-1320) returned an Abundance of 0.000142, a MiST Score of 0.77, a Reproducibility of 0.984 and a Specificity of 0.681.
In turn, “Csnk2a2 (from UniProt O54833 1-350) (enzyme)” showed an Abundance of 2.87e-05, a MiST Score of 0.778, a Reproducibility of 0.913 and a Specificity of 0.725.
With Slc25a3 (from UniProt Q8VEM8 46-357), the Abundance is 6.71e-05, the MiST Score came to 0.778, the Reproducibility is 0.975 and the Specificity amounted to 0.696.
The matching figures for “Emg1 (from UniProt O35130 1-244) (enzyme)”: 7.66e-05, 0.766, 0.939 and 0.695.

A further assay concerns the target TOX (UniProt Q66JW3). Description: anti-TOX IP from EL4 cells, mass spectrometry, MiST analysis.
Take Stau1 (from UniProt Q9Z108 1-487): the Abundance came to 1.96e-05, the MiST Score is 0.825, the Reproducibility turned out to be 0.951 and the Specificity came to 0.776.
The corresponding values for Tbl1x (from UniProt Q9QXE7 2-527) are 5.34e-06, 0.825, 0.453 and 1.
The substance Wrnip1 (from UniProt Q91XU0 1-660) registered an Abundance of 3.59e-06, a MiST Score of 0.812, a Reproducibility of 0.41 and a Specificity of 1.
Tpx2 (from UniProt A2APB8 1-745): the Abundance amounted to 1.91e-05, the MiST Score amounted to 0.805, the Reproducibility was 0.992 and the Specificity is 0.727.
The matching figures for Ep400 (from UniProt Q8CHI8 1-3072): 2.31e-06, 0.825, 0.451 and 1.
The matching figures for Ythdf1 (from UniProt P59326 2-559): 3.5e-05, 0.811, 0.833 and 0.809.
With Tfip11 (from UniProt Q9ERA6 1-838), the Abundance came out at 5.43e-06, the MiST Score was 0.826, the Reproducibility stood at 0.972 and the Specificity was 0.767.
Regarding “Otud4 (from UniProt B2RRE7 1-1107) (enzyme)”, the Abundance was 9.24e-07, the MiST Score was determined as 0.818, the Reproducibility turned out to be 0.993 and the Specificity is 0.747.
“Cpsf3 (from UniProt Q9QXK7 2-684) (enzyme)” gave an Abundance of 1.17e-05, a MiST Score of 0.825, a Reproducibility of 0.871 and a Specificity of 0.811.
